This is an account of results in the supplement of paper PMC12042874.

± gives the uncertainty stated by the source.

The data set is described as follows: amyloid nucleation score (Sup35N fusion, yeast selection) (log enrichment); library NNK2; higher = more nucleation; inactive = no reads after selection. The essentials: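 DiMSum was used to calculate nucleation scores as log enrichment of output over input reads, centred on the mode score of non-aggregating sequences. Sequences with fewer than 100 input reads were not scored. Input and output came from Illumina sequencing of plasmid inserts in psi-negative yeast expressing peptides of 20 random codons fused to Sup35N, induced 24 hours with 100 μM copper sulfate and then grown 7 days at 30°C on medium lacking adenine and uracil.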

Regarding THIITWSVNFTKGWQCFESQ, the amyloid nucleation score was 1.36 ± 0.38.
Next, NVWILNNYGQCIKS: 5.254 ± 0.023; CFIRFSRMGLFLFCLPKNLQ: -1.59 ± 0.53.
As for PQWWRNLLSKSGTNAADCYL, the amyloid nucleation score was determined as 0.577 ± 0.57.
With SLNKNINRYFGFWYPDSPLL, the amyloid nucleation score is -1.22 ± 0.78.
In the case of KFSASKSDISLSSYVVIMFM, the amyloid nucleation score was 6.186 ± 0.036.
With IDGKARDYMAGDARMNRF, the amyloid nucleation score was -1.45 ± 0.75.
Regarding SVCLSSYFHCKRSVMWFYKV, the amyloid nucleation score is -0.363 ± 0.74.
As to TGYVE, the amyloid nucleation score came out at 0.293 ± 0.26.
Next, TRKILEMVFLLTAVNYNGVP: -1.12 ± 0.26; RVDTYYQNL: 5.21 ± 0.059; VDFLLYLVSSTFGRARKWVY: -0.425 ± 0.27.
Turning to ICSAPGYL, the amyloid nucleation score result is “inactive”.
In turn, RRFTINFKDK had an amyloid nucleation score of -1.2 ± 0.78.
Next, IIVSATSEGSLRRIRMKMGW: 4.27 ± 0.11.
In turn, GPITWTNSSGCRIPMPSFSE came in with an amyloid nucleation score of 1.42 ± 0.36.
Consider NLPIGLCSAGRFLGNNL, for which the amyloid nucleation score is 0.123 ± 1.
SFFQSVMPYHLVYLGQILLN displayed an amyloid nucleation score of -1.25 ± 0.34.
Substance STSIPCSEHDFVCYHMVCGF yielded an amyloid nucleation score of -0.652 ± 0.37.
With RFSYFFHVLMRGRNYVQATG, the amyloid nucleation score entry is “inactive”.
The result for HIVEDLRVSAFTFSIKFISE reads 3.33 ± 0.099; that for FTNAPVLFVN, “inactive”.
For KISVWGYRFLDRH, the amyloid nucleation score stood at 0.072 ± 0.21.
Next, FRKEEADYHGYRLYSVAVNA: -0.214 ± 0.36; VHVRGACCHGCRARNVSGHP: 1.05 ± 0.19.
For ILIVVMCFHSNNKSRDNRIY, the amyloid nucleation score is -1.46 ± 1.
The result for FLSSYVFLCWCSLVSWGGTW reads 1.03 ± 0.66; that for NRSTDAYFIILHICYTNGVY, -0.429 ± 0.61; that for TLHKLFQMNLGRR, -0.738 ± 0.44.
The result for ILRDDGPNYRFQIRLL reads 4.647 ± 0.038; that for CTCFVLSGSVV, 2.4 ± 0.13.
For the substance LHCLAISFNNFSLMVLYAGN, the amyloid nucleation score is -0.187 ± 0.54.
Regarding CLVYVGRVPSRIGDHRITAY, the amyloid nucleation score amounted to 0.966 ± 0.38.
The result for AVMTRFEDVYDCAVSTCKMG reads -0.363 ± 1.
CEGCHATKYRVRSWS yielded an amyloid nucleation score of 1.01 ± 0.31.
Next, QFHFK: 0.036 ± 0.35; NYLDLFTRVWKS: “inactive”.
Next, ISVGRSYSV: 0.694 ± 0.24; DLSVLDLGVLFINRFTRTLE: “inactive”; VNVYMYNYLLKHITKDRRST: 8.16 ± 0.031.
The result for CMSNTMCAFVDGYNMHYLVD reads “inactive”; that for WPVHV, -1.38 ± 1.1; that for VWNYISLNEAM, -0.946 ± 0.55.
Substance YCVLMNS displayed an amyloid nucleation score of -0.173 ± 0.41.
Next, SYLFIDDTVDCQLKERRYPN: -0.763 ± 0.62; LFGVSMSKADMSFWQDSGTR: 4.77 ± 0.092; HRSNFVVKLAASGSFTTGCR: 0.376 ± 0.29.
In the case of HIIGLIYQKGTSWTA, the amyloid nucleation score was 4.85 ± 0.073.
As for GTNHWTVRLIYLVLHLDRDG, the amyloid nucleation score was determined as 0.583 ± 0.41.
Turning to FTCTGRRVYAQLKNVFIFVL, the amyloid nucleation score amounted to 1.92 ± 0.19.
Next, TLSHPWADLLVSETHMVYR: -0.381 ± 1.1; VSWDISMNEVADWVVGAGGA: 1.13 ± 0.42; RLLFSDCFLVFLPMGCFAFF: 3.69 ± 0.07.
Next, QAPLWENSVSVPRLWWNSLS: -0.342 ± 1.1; NFLWVLSRKSHGIPYRKFSN: “inactive”; PSTIGQYITR: -0.119 ± 0.49.
IRLAYASRNWCSSFGCGRMI yielded an amyloid nucleation score of -0.571 ± 0.55.
Regarding CFCQTCSLSRAKSMEEGCLR, the amyloid nucleation score is -1.08 ± 0.54.
The result for SDNRENFSRTFCFSVVGNWK reads “inactive”; that for VIVGSLRCHFSLVAWVKC, 0.651 ± 0.51; that for TLAFVNNYDLRLELDRIEVP, “inactive”.
Next, ASRMPSGVRSFWAKPR: 0.321 ± 0.32.
Consider SMMQLCV, for which the amyloid nucleation score is -0.043 ± 0.54.
Next, LGYKVSK: 2.63 ± 0.19.
Next, IRSPDAVNSNCATPRMRVY: 0.499 ± 0.36.
Take HSSEIL: the amyloid nucleation score is -0.006 ± 0.65.
The result for RARIWALGYSLEEIRRGLED reads 3.19 ± 0.11; that for GENSVLRSGNFKYKAWFCGG, -0.342 ± 1; that for TSSTLGLYSHDMPTATHLME, -0.176 ± 0.41.
NGTLRQYDRSDYINKIGDSN registered an amyloid nucleation score of -1.02 ± 0.38.
The result for CKENFKIFFDFYYGMTSVLS reads “inactive”; that for MRLLVHSWDIESSFNVRMGQ, 3.42 ± 0.058; that for CVAWKR, 0.554 ± 0.48.
The result for TITNCP reads “inactive”; that for CCFGVQVEGT, -0.461 ± 0.79.
The substance SVRLNFEFRDYDCRQVLSIF displayed an amyloid nucleation score of -0.825 ± 1.1.
RRSSD came in with an amyloid nucleation score of 1.2 ± 0.3.
The result for VDRMVDIMCTTKKMIHAF reads 1.45 ± 0.4.
The substance LGYMVVK yielded an amyloid nucleation score of -1.35 ± 0.75.
Take YLRLHYAFSGVNNKGIESGC: the amyloid nucleation score entry was “inactive”.
As for YSYPRS, the amyloid nucleation score result is “inactive”.
Next, YVVVINSEQNVETFKGFL: “inactive”.
IDCFIVISSMMSRVLYCGER gave an amyloid nucleation score of 0.21 ± 0.25.
The result for YLEFSPTSITWGAPLERYST reads “inactive”; that for YGESVHTR, -0.446 ± 0.38; that for IISSGSIDCVYWTWFLRY, -0.396 ± 0.55.
As for RYNLKQCL, the amyloid nucleation score result was “inactive”.
The result for FMFPILDSVTPIFDIVITGD reads “inactive”; that for YLNYNIMS, “inactive”.
Next, SFNTLCLRKC: -0.65 ± 0.37; SNFQYSIKGQADRLPIVLVL: -0.373 ± 1.
The result for QSVYMFRKNNDFPRGTAGSQ reads -0.883 ± 1.1; that for WAWGCWVHSESVAWSCMCKA, 0.476 ± 0.28.
In turn, NQTPLMLACSADFHSISSWT had an amyloid nucleation score of 0.365 ± 0.4.
Next, RICVRCPSYYTMWLWCLRFL: “inactive”; WSEISWTIQGCFVRHDALLG: 0.087 ± 0.56; VTIRDLFYGHVRQPDSQVVI: 0.883 ± 0.52.
Next, YEYDLSPCSVVRRVTLKRMV: 1.55 ± 0.4; DVSESRSTVDGSDNEGWLTD: 0.299 ± 0.42.
Turning to VLYHFEISA, the amyloid nucleation score is -0.011 ± 0.54.
In turn, NTVKKLHLLQHHRVYVCATT gave an amyloid nucleation score of -0.965 ± 0.78.
As to NMSLHRAILGFKAATIMRSL, the amyloid nucleation score is -0.821 ± 1.1.
Next, NNLCQ: -0.1 ± 0.32; YFSCITILGFGSSNSWRRIM: -1.02 ± 0.78; LRAWDYRISNSHTRLDIDFT: “inactive”.
In the case of VDVNVHIAGIWLWFYLWRYV, the amyloid nucleation score was -0.768 ± 1.1.
The result for CFRLD reads “inactive”; that for GPLFRFFRHRAFLQSTFSA, -0.342 ± 0.24.
As for RCPRSKLVIMDRASVLEGGR, the amyloid nucleation score came out at 0.559 ± 0.32.
Next, DVMSSPGVSFITTVAFDVC: 0.382 ± 0.8; TSSVPGLRSWVWVKQDSDRW: 1 ± 0.19; WSSHFWMFGSAVSQAWGRGW: 3.17 ± 0.074.
The result for SRNRFHSYLMSRCNMWQLHY reads 0.287 ± 0.33; that for LSMERSVGFYDTVTLWLQRK, 5.9 ± 0.056.
IFCCIRFLV came in with an amyloid nucleation score of 6.549 ± 0.03.
Next, YTLFPAVLECDQVLYVSVNF: 6.491 ± 0.037.
VLYFLYGKWQKTQRSNRYLQ gave an amyloid nucleation score of -0.674 ± 0.76.
With LFCRSSC, the amyloid nucleation score result was “inactive”.
For the substance WWTIIICNWSVSKGQDDNRA, the amyloid nucleation score is 7.238 ± 0.059.
RSNDCDDLMDHVLWGYETYR displayed an amyloid nucleation score of 1.08 ± 0.66.
Next, RKLGYFLRLRKKATHGRLLV: 5.5 ± 0.067; LCTIRFVNIFVCRMSKLNSH: -1.4 ± 0.62.
Next, WAYPRNVQ: 0.327 ± 0.38.
The result for VLVSVVRCDVVAAVRCVQM reads 3.56 ± 0.11; that for MTVYLLIVLKFCFRRMSPEA, -0.255 ± 0.49; that for WVHVNSCELDSPGKAWGDTG, 1.11 ± 0.32.
FWEKSSKVFW came in with an amyloid nucleation score of 3.33 ± 0.13.
With VAQSRLT, the amyloid nucleation score was determined as 0.521 ± 0.8.
The result for VYFTSVMNSCVYVSAVCEMC reads 6.953 ± 0.046; that for GVCSGFPFVRFRNIYIRRLA, 3.22 ± 0.078.
The result for FCGISSR reads -0.411 ± 0.56; that for EFWVLNYVITNLHWQTYSIM, -1.29 ± 1; that for MIEKVQFQCLVIICRNGVV, 6.565 ± 0.052.
In the case of LTYRVCHEVQGQRYCMAREH, the amyloid nucleation score was determined as 0.174 ± 0.74.
Substance KQPLYCHDWFHLCGSDSTSF registered an amyloid nucleation score of 2.75 ± 0.16.
The result for ESISTVITLRGLMLITTGYN reads 4.12 ± 0.097.
The result for FVFLFMRLKDGFYATIYISH reads “inactive”; that for SVKQLTPD, -0.319 ± 0.6.
The result for KFVYSGGLFTMLRSC reads -0.414 ± 0.61.
